Source: patent publication US11826400B2, “Neuregulin based compositions and uses thereof for preventing, treating or delaying the myocardial ischemia-reperfusion injury” (ZENSUN (SHANGHAI) SCIENCE & TECHNOLOGY LIMITED, priority 2010, dated 2023)

Tested on: myocardial ischemia reperfusion in rat
Experiment: Therapeutic effect on myocardial ischemia reperfusion in rat (coronary ligation 45 min, reperfusion 2 h, TCC staining of heart sections)
Format: in vivo, Wistar rats
Details: P<0.05
Method: Wistar rats (male, 200˜240 g) were divided into groups and administered with different dosages of rhNRG-1, placebo or rhThymosin-β4 (as shown in Table 1) after anaesthetized with intra-abdominal injection of 20% urethane (5 ml/kg). Thirty minutes after the drug started to be given to the rats, the anterior descending limb of the left coronary artery was ligated for 45 minutes to cause partial myocardium turned white obviously in the ligation area. After that the ligation thread was loosen to keep coronary blood flow for 2 hours and then take out the heart rapidly and wash vascular fat away with normal saline, and then freeze the heart in −30° C. for one hour.
Cut the heart parallelly from apex to base along coronary sulcus to myocardium sections with the thickness of 1 mm, and then put them into TCC dye liquor for 20 min in 37° C. in a shaker. After staining extra dye was washed immediately with water, and then the sections were put into 4% formalin for one hour. Photo and analyze the total size and the infarction size of were analyzed with Image Analysis Software. Infarction size ratio equals to the ratio of the infarction size and the total size of the myocardium section.

B1: rhNRG-1: produced by Zensun (Shanghai) Science & Technology Ltd, having the amino acids of SEQ ID NO:1 (177-237 residues of NRG-1β2 isoform) (protein, listed as Homo sapiens)
chain: SHLVKCAEKEKTFCVNGGECFMVKDLSNPSRYLCKCPNEFTGDRCQNYVMASFYKAEELYQ
Infarction size compared with Group A (placebo) (Group B, 10 μg/kg/h continuous infusion): significantly smaller than that of Group A | Infarction size compared with Group A (placebo) (Group C, 30 μg/kg/h continuous infusion): significantly smaller than that of Group A
